Measured values taken from article PMC7440162 (Cell, 2020).

What was measured:
Assay in all cases: SPR
[1] = target: T1, human ISLR2 ECD-Fc (human, UniProt Q6UXK2 19-589, biotin on the AviTag (as SPR ligand))
T1 sequence: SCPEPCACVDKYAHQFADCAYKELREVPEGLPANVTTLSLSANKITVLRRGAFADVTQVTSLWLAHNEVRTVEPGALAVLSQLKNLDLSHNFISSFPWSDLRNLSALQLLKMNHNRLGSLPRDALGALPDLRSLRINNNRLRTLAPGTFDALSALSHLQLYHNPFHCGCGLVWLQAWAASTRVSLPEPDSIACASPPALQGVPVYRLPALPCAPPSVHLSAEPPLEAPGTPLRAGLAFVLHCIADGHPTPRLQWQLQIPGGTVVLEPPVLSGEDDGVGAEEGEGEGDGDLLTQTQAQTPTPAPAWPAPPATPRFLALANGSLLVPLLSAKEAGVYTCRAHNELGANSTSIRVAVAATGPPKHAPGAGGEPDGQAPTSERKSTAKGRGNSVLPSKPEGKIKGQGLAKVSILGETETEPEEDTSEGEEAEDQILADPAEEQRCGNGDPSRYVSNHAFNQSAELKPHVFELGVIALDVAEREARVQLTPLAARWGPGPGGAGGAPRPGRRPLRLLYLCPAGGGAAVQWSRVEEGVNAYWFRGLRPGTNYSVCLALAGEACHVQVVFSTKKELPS

[2] = target: T2, ICAM5 ECD-Fc (human, UniProt Q9UMF0 32-835, biotin on the AviTag (as SPR ligand))
T2 sequence: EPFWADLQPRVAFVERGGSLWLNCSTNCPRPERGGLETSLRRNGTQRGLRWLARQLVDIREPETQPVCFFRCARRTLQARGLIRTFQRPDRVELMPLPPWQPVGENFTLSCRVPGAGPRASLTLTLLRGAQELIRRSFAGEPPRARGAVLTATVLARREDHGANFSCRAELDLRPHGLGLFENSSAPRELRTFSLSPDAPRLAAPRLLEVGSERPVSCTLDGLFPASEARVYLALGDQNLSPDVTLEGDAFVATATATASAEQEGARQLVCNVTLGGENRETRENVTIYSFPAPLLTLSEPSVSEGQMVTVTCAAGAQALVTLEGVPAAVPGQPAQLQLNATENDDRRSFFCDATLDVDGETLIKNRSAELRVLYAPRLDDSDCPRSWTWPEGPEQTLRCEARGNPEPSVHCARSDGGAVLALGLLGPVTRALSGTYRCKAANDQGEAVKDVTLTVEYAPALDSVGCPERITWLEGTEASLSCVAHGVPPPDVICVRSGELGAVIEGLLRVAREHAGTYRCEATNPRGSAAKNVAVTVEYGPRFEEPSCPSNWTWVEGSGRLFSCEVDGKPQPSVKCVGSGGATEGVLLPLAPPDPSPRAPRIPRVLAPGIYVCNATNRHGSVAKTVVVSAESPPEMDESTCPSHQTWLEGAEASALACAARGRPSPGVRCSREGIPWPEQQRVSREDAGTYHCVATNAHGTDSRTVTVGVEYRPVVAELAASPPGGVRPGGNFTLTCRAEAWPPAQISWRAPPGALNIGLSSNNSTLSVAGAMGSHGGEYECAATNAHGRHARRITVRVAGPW

[3] = target: T3, WFIKKN2-Fc (human, UniProt Q8TEU8 35-576, biotin on the AviTag (as SPR ligand))
T3 sequence: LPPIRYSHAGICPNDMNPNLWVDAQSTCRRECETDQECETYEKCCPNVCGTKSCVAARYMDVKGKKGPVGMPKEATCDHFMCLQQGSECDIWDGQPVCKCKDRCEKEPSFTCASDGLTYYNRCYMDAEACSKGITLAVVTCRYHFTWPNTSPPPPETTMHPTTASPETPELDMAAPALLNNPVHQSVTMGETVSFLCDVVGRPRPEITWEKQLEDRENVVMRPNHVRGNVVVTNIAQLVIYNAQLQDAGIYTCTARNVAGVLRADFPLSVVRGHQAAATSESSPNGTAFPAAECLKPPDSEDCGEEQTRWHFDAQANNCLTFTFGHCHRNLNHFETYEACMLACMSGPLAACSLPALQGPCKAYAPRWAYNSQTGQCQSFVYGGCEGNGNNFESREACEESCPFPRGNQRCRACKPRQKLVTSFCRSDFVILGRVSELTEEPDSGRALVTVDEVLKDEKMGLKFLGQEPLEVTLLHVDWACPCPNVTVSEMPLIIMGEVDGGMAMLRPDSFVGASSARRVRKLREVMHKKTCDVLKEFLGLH

[4] = target: LTF-Fc (human, UniProt P02788, biotin on the AviTag (as SPR ligand))
Chain of LTF-Fc (P02788 20-710): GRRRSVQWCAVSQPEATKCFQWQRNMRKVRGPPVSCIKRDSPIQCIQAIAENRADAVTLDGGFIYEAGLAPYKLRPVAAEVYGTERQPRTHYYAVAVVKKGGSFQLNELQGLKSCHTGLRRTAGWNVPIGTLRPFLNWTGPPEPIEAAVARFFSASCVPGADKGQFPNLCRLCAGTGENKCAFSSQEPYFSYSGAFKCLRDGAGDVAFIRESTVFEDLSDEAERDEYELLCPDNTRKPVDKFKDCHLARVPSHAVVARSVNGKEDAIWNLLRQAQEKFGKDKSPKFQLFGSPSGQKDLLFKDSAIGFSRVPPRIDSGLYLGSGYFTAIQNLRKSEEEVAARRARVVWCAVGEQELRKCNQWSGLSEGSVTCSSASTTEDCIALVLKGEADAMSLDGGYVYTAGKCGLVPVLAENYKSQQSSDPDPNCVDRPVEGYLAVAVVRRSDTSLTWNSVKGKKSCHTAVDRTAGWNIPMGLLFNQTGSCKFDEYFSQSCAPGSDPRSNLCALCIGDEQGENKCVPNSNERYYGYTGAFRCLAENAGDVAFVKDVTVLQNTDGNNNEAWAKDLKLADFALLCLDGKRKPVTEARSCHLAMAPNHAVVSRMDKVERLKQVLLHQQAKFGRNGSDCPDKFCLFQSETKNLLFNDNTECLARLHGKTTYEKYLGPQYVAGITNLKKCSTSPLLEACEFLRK

[5] = target: T4, mouse Lepr ECD-Fc (mouse, UniProt P48356 22-839, biotin on the AviTag (as SPR ligand))
T4 sequence: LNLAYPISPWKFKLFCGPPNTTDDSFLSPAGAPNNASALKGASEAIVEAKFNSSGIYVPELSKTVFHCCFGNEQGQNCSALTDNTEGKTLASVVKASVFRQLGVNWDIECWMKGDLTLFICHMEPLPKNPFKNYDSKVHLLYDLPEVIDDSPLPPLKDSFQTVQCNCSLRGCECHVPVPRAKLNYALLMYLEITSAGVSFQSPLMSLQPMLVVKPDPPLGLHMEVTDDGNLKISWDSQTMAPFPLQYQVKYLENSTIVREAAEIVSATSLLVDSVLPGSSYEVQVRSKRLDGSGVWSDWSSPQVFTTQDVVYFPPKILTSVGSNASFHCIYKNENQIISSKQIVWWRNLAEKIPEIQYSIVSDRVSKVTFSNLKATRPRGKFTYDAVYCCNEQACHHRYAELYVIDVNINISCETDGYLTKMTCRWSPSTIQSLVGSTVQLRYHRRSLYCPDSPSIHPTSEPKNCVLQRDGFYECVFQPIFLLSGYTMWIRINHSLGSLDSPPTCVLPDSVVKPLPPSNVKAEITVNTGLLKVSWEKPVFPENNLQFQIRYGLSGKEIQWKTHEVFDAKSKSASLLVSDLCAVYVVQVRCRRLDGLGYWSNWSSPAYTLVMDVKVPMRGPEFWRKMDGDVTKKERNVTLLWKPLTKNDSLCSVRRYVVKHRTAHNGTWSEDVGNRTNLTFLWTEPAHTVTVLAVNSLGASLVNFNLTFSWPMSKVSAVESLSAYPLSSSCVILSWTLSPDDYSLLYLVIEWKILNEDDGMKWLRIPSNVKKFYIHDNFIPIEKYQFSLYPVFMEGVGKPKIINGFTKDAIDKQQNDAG

[6] = target: T5, mouse Islr2 ECD-Fc (mouse, UniProt Q5RKR3 20-589, biotin on the AviTag (as SPR ligand))
T5 sequence: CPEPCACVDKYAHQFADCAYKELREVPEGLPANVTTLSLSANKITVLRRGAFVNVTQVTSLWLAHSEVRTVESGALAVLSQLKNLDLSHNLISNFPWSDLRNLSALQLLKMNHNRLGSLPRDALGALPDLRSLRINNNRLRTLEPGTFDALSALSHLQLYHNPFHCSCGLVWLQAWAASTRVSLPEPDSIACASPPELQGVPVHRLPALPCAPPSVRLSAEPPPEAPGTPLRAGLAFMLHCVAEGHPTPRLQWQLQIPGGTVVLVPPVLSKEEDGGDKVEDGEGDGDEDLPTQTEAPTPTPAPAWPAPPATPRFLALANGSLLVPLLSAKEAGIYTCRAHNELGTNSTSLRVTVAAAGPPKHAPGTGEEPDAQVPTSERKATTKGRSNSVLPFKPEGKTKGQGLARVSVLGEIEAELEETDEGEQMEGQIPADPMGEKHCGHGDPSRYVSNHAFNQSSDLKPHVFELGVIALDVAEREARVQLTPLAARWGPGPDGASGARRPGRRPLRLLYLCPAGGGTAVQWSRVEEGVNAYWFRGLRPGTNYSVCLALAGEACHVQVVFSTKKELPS

[7] = target: T6, PTPRS ECD-Fc (human, UniProt Q13332 30-1282)
T6 sequence: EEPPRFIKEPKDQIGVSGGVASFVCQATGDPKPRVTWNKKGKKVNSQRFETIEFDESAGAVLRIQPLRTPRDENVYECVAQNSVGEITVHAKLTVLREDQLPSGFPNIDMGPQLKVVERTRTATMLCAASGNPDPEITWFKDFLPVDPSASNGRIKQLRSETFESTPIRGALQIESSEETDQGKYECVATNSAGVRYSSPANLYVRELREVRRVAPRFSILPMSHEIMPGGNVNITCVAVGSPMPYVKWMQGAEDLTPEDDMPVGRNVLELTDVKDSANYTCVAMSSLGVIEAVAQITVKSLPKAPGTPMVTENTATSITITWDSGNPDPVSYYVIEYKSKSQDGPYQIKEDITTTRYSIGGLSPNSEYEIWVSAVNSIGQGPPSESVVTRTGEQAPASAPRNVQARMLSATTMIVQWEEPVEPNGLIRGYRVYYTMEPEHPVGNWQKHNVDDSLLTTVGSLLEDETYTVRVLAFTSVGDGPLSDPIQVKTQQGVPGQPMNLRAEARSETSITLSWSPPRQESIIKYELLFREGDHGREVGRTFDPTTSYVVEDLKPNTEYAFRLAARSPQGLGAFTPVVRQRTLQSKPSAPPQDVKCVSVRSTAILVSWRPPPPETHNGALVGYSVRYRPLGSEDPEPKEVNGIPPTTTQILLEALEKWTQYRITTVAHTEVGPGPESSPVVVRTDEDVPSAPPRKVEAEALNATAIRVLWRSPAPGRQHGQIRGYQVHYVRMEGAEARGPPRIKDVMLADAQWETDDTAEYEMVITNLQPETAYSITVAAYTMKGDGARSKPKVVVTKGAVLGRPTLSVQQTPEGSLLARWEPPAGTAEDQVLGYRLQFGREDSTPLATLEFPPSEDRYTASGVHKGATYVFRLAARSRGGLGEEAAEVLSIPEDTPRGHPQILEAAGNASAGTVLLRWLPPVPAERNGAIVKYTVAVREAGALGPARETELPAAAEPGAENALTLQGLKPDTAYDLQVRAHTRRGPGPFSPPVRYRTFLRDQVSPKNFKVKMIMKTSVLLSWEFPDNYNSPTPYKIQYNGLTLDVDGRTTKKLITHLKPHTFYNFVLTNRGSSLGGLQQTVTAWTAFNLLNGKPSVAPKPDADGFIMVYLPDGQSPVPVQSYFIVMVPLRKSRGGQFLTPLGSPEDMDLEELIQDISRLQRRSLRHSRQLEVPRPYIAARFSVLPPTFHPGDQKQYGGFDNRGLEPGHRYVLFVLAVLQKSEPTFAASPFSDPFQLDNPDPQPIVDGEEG

[8] = target: T7, FGFR3 ECD-Fc (human, UniProt P22607 23-375)
T7 sequence: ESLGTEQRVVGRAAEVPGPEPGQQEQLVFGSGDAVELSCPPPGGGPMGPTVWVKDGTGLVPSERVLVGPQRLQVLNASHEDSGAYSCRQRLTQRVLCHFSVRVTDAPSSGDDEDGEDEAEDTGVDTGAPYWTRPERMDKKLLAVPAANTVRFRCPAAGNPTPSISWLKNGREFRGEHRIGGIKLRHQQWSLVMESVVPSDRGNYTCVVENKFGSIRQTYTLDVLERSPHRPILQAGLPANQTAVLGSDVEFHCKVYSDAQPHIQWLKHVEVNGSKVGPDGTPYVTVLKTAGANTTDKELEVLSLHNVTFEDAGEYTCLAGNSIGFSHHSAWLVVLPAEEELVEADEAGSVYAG

Measured: binding result

B1: IL-6Rα ECD-Fc (Fc fusion)
chain: LAPRRCPAQEVARGVLTSLPGDSVTLTCPGVEPEDNATVHWVLRKPAAGSHPSRWAGMGRRLLLRSVQLHDSGNYSCYRAGRPAGTVHLLVDVPPEEPQLSCFRKSPLSNVVCEWGPRSTPSLTTKAVLLVRKFQNSPAEDFQEPCQYSQESQKFSCQLAVPEGDSSFYIVSMCVASSVGSKFSKTQTFQGCGILQPDPPANITVTAVARNPRWLSVTWQDPHSWNSSFYRLRFELRYRAERSKTFTTWMVKDLQHHCVIHDAWSGLRHVVQLRAQEEFGQGEWSEWSPEAMGTPWTESRSPPAENEVSTPMQALTTNKDDDNILFRDSANATSLPVQDSSSVPLP
modifications: biotin on the AviTag (as SPR ligand)
binds: [1] | [2] | [3] | [4]

B2: Recombinant Mouse Leptin Protein (monomer) (ligand)
chain: VPIQKVQDDTKTLIKTIVTRINDISHTQSVSAKQRVTGLDFIPGLHPILSLSKMDQTLAVYQQVLTSLPSQNVLQIANDLENLRDLLHLLAFSKSCSLPQTSGLQKPESLDGVLEASLYSTEVVALSRLQGSLQDILQQLDVSPEC
binds: [5] | [1] | [6]

B3: IL1RAPL2 ECD-Fc (Fc fusion)
chain: TNLKMVSKRNSVDGCIDWSVDLKTYMALAGEPVRVKCALFYSYIRTNYSTAQSTGLRLMWYKNKGDLEEPIIFSEVRMSKEEDSIWFHSAEAQDSGFYTCVLRNSTYCMKVSMSLTVAENESGLCYNSRIRYLEKSEVTKRKEISCPDMDDFKKSDQEPDVVWYKECKPKMWRSIIIQKGNALLIQEVQEEDGGNYTCELKYEGKLVRRTTELKVTALLTDKPPKPLFPMENQPSVIDVQLGKPLNIPCKAFFGFSGESGPMIYWMKGEKFIEELAGHIREGEIRLLKEHLGEKEVELALIFDSVVEADLANYTCHVENRNGRKHASVLLRKKDLIYK
modifications: biotin on the AviTag (as SPR ligand)
binds: [7] | [8]
